In the test the target is T1, Band 3 / glycophorin A (Wright b, Wrb epitope) on human red blood cells (human, UniProt P02724 20-150).
T1 construct: whole, on cells; also called Band3/GPA; AE1
T1 sequence 1: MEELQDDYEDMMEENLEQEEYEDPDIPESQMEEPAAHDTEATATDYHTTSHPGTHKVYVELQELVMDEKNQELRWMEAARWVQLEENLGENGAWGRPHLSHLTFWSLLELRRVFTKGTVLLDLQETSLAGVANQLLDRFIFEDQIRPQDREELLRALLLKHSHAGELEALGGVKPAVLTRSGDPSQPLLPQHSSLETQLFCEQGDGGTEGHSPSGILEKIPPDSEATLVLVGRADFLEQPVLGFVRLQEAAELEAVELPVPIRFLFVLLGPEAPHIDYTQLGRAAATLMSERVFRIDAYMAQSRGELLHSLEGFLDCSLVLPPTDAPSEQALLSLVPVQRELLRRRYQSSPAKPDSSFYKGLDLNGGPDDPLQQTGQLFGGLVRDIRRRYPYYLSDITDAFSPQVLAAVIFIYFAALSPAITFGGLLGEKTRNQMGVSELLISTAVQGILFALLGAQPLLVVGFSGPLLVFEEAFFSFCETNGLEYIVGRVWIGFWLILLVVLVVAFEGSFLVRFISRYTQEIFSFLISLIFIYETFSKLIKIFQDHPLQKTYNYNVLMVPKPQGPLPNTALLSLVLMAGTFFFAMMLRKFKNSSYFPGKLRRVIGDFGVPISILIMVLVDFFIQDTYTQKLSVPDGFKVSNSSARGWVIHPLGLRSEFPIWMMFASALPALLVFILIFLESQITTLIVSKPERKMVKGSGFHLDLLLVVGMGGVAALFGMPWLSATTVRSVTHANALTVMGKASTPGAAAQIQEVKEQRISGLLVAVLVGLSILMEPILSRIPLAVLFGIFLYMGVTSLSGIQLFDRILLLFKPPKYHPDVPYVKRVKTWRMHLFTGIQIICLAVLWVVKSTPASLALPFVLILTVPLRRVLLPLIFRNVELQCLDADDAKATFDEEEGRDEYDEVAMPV
T1 sequence 2: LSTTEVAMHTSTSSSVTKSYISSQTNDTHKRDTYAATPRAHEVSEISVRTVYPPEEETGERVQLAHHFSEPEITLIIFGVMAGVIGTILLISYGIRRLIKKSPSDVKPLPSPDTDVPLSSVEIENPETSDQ
Briefly: Fab/phage binding assays on human RBCs incl. rare RBC types lacking conserved antigens. The procedure: An IgG Fab/phage display library was prepared from the peripheral blood lymphocytes of a hyperimmunized macaque using homologous human V-region oligonucleotides (Siegel D L, R. M., Lee H, Blancher A., Production of large repertories of macaque mAbs to human RBCs using phage display. Transfusion, 1999. 39(S10): p. 92S, which is incorporated herein by reference). Fab/phage specific for human RBCs were isolated by panning on intact human RBCs. Monoclonal Fab/phage were grown to produce antibodies for immunoassays and their corresponding DNA was extracted for sequencing. To identify target epitopes, antibodies were screened against RBCs of known serologic phenotypes, including rare cells lacking highly conserved antigens, using standard immunohematologic techniques (Roback, J. D., Technical Manual. 2014: American Association of Blood Banks (AABB), which is incorporated herein by reference.)
Using antibody phage display, we identified non-human-primate Fab antibody fragments to antigenic determinants on human RBCs. By panning phage libraries on human RBCs, we produced a Fab/phage preparation with >10⁷ RBC-specific clones capable of agglutinating human RBCs. By performing binding assays against rare RBC types lacking highly conserved antigens and epitopes, we identified the target antigens of >30 of these clones. At least 34 clones bound the Wright b (Wrb) epitope formed by a Band 3/GPA interaction, present on the RBCs of essentially 100% of the human population. The Wrb epitope, determined by the protein sequence of Band 3, is a site of association between Band 3 with GPA, and GPA expression is simultaneously required for its presence on the membrane (Huang C H, Reid M E, Xie S S, Blumenfeld 00. Human red blood cell Wright antigens: a genetic and evolutionary perspective on glycophorin A-band 3 interaction. Blood. 1996; 87(9):3942-3947). At least 3 other clones bound to a highly-conserved epitope Rh17(Hr0) on human RhCE protein, also present on essentially 100% of the human population. Both these targets are specific for erythroid lineage (Rojewski M T, Schrezenmeier H, Flegel W A. Tissue distribution of blood group membrane proteins beyond red cells: evidence from cDNA libraries. Transfus Apher Sci.

B1: KP2-19 Fab/phage clone (anti-Band 3, Wrb) (Fab, V domains shown)
VH: EVQLLESGPGLVKPSETLSLTCAVSGGSINGGYDWTWIRQSPGKGLQWIGWIYGSRGTTNYNPSLRNRVTISIDTSRNQFSLRLSSLTAADTAVYYCAKRVGYGNSYFDSWGQGVLVTVSS
VL: ELTLTQSPATLSLSPGERATLSCRASQSVSSRLAWYQQKPGQAPRLLIYDASSRVTGIPDRFSGSGSGTDFTLTISSLEPEDVGVYHCQQYNDLLPLTFGGGTKVEIK
For B1, the binding result is “binds”.

B2: KP2-23 Fab/phage clone (anti-Band 3, Wrb) (Fab, V domains shown)
VH: EVQLLESGPGLVKPSETLSLTCTVSGSSLSSAYGWNWIRQPPGKGLEWIGSIGGSRDNTNYNPSLKRRVTISKDTSKNQFSLKLKSVTAADTAVYYCAQRGAYGYSYFDYWGQGVLVAVSS
VL: ELTLTQSPATLSLSPGETATLSCRASQTVGRNLAWYQQRPGQAPNLLVHSAYFRATGIPDRFSGSGSGTDFTLTISSLEPEDAGVYHCQQYNDLLPLTFGGGTKVEIK
Consider B2, for which the binding result is listed as “binds”.

B3: KP3-07 Fab/phage clone (anti-Band 3, Wrb) (Fab, V domains shown)
VH: EVQLLESGPGLVKPSETLSLTCTVSGSSLSSAYGWNWIRQPPGKGLEWIGSIGGSRDNTNYNPSLKRRVTISKDTSKNQFSLKLKSVTAADTAVYYCAQRGAYGYSYFDYWGQGVLVTVSS
VL: ELVMTQSPATLSLSPGETATLSCRASQSIGSNLAWYQQKPGQAPKLLVHSANIRATGIPDRFIGSGSRTDFTLTISSLEPEDVGVYHCQQYNDFLPLTFGGGTKVEIK
Take B3: the binding result is “binds”.

B4: KP3-19 Fab/phage clone (anti-Band 3, Wrb) (Fab, V domains shown)
VH: EVQLLESGPGLVKPSETLSLTCAVSGGSLSGGYDWYWIRQSPRKGLEYIGYIYDSRGTTNYNPSLKNRVTISIDTSKNHFSLNLKSVTAADTAVYYCARRVGYGATYFDLWGQGVLVTVSS
VL: ELVMTQSPATLSLSPGETATLSCRASQSVGSNLAWYQQKPGQAPKLLVHSANFRATGISDRFSGSGSRTDFTLTISSLEPEDVGVYHCQQYNDLLPLTFGGGTKVEIK
Consider B4, for which the binding result was “binds”.

B5: KP2-17 Fab/phage clone (anti-Band 3, Wrb) (Fab, V domains shown)
VH: EVQLLESGPGLVKPSETLSLTCAVSGYSISSGYGWTWIRQPPGKGLEWIGYIGGSRGNANYNPSLKSRVTISKDTSKNQFSLKLTSVTAADTAVYYCARDGGYGERYLEFWGQGALVTVSS
VL: AAELTQSPAFRSVTLKEKVTITCQASQSIGSSLHWYQQKPDQSPKLLIKFASQSISGVPSRFSGSGYGTDFTLTINSLEAEDAATYYCHQSSSFPWTFGQGTKVEIK
Regarding B5, the binding result is “binds”.

B6: KP3-09 Fab/phage clone (anti-Band 3, Wrb) (Fab, V domains shown)
VH: EVQLLESGPGLVKPSETLSLTCAVSSLSLSSGFAWSWIRQPPGEGLEWIGSIGGSRDNVNYNPSLKSRVTISKDTSKNQFSLRLRSVTAADTAVYYCVTIHGYRNWYLDHWGQGVLVTVST
VL: AAELTQSPAILSLSPGETATLSCRASQSIGTSLAWYQQKPGQAPKLLVHSAYYRATDIPERFSGSGSRTDFTLTISSLEPEDVGVYHCQQYNDLLPLTFGGGTKVEIK
Take B6: the binding result was “binds”.

B7: KP2-14 Fab/phage clone (anti-Band 3, Wrb) (Fab, V domains shown)
VH: EVQLLESGPGLVKPSETLSLTCAVSGSSLSSAYGWNWIRQAPGKRLEWIGFIGGSRDNTNYNPSLRSRVTISKDTSKNHFSLKLTSVTAADTAVYFCARRGAFGNSYFDYWGQGVPVTVSS
VL: AAELTQSPATLSLSPGETATLSCRASESVGSSLAWYHQKPGQAPRLLVHSASFRATGIPDRFSGSGSRTEFTLTVSSLEPEDVGVYHCQQYNDLLPLTFGGGTKVEIK
B7: the binding result is listed as “binds”.

B8: KP3-20 Fab/phage clone (anti-Band 3, Wrb) (Fab, V domains shown)
VH: EVQLLESGPGLVKPSETLSLTCAVSGYSISSGFAWNWIRQTPGKGLEWIGYIGGSRDNTNYNPSLKSRVTISKDTSKNQFSLKLTSMTAADTAMYYCARRGAYGNSYFDFWGQGVPVTVSS
VL: AAELTQSPATLSLSPGETATLSCRASQSVGSNVAWYQQKPGQAPKLLVHSAYYRATGIPDRFSGSGSRTDFTLTISSLEPEDVGVYHCQQYNDLLPLTFGGGTKVEIK
In the case of B8, the binding result is given as “binds”.

B9: KP3-06 Fab/phage clone (anti-Band 3, Wrb) (Fab, V domains shown)
VH: EVQLLESGPGLVRPSETLSVTCDVSGGSISSASWSWIRQAPGKRLEWIGAISGSGSPTNVNPSLKSRVTLSVDTSKNQLSLKLRSMTAADTAVYYCARRGGYGNRYFDYWGQGVAVTVSS
VL: AAELTQSPATLSLSPGETATLSCRASQSVGSSLAWYQQKPGQAPKLLVHSAYFRATGIPDRFSGSGSRTDFTLTISSLEPEDVGVYHCQQYNDLLPLTFGGGTKVEIK
Take B9: the binding result is “binds”.

B10: KP2-13 Fab/phage clone (anti-Band 3, Wrb) (Fab, V domains shown)
VH: EVQLLESGPGLVKPSETLSLTCAVSGGSISGGYDWSWIRQSPGKGLEWIGYIYDSRGTTNYNPSLRKRVAISIDTSRNQFSLNLRSLTAADTAVYYCARRAGYGSAYFDYWGQGVLVTVSS
VL: AAELTQSPATLSLAPGETATLSCRASQSIGTNLAWYHQKPGQPPKLLVHTAYVRATGIPNRFSGSGSRTDFTLTINSLQPEDVGVYHCQQYNDLLPLTFGGGTKIDIK
For the molecule B10, the binding result was “binds”.

B11: KP2-24 Fab/phage clone (anti-Band 3, Wrb) (Fab, V domains shown)
VH: EVQLLESGPGLVKPSETLSLTCTVSGYSISSGYGWGWIRQSPGKGLEWIGYFGGSRGNTNYNPSLKSRVTISQDTSKNQFSLKLKSVTAADTGIYYCARDSGYSRRWVDYWGQGVLVTVSS
VL: AAELTQSPATLSLAPGETATLSCRASQSVGTNLAWYHQKPGQPPKLLVHSAYVRATGIPDRFSGSGSRTDFTLTINSLQPEDVGVYHCQQYNDLLPLTFGGGTKIDIK
Take B11: the binding result is listed as “binds”.

B12: KP2-22 Fab/phage clone (anti-Band 3, Wrb) (Fab, V domains shown)
VH: EVQLLESGPGLVKPSETLSLTCAVSGDSISSGYGWSWIRQTPGKGLEWIGYIGGSRGNTNYNPSLKSRVTISKDTSKNQFSLKLSSVTAADTAVYYCARRAPYWGYSYLDYWGQGVLVTVSS
VL: ELTLTQSPATLSLAPGETATLSCRASQSIGTNLAWYHQKPGQSPKLLVHSAYVRATGIPDRFSGSGSRTDFTLTINSLQPEDVGVYHCQQYNDLLPLTFGGGTKVEIK
As for B12, the binding result was “binds”.

B13: KP2-15 Fab/phage clone (anti-Band 3, Wrb) (Fab, V domains shown)
VH: EVQLLESGPGLVKPSETLSLTCAVSGGSISGGYDWSWIRQSPGKGLEWIGYIYDSRGTTNYNPSLRKRVTISIDTSRNQFSLKLRSLTAADTAVYYCARRAGYGSAYFDYWGQGVLVTVSS
VL: AAELTQSPATLSVSPGEAATLSCRASQTVGRNLAWYQQKPGQAPKLLVHSAHFRATGIPDRFSGSGSGTDFTLTISSLEPEDAGIYHCQQYNDLLPLTFGGGTKVEIK
Turning to B13, the binding result is listed as “binds”.

B14: KP3-12 Fab/phage clone (anti-Band 3, Wrb) (Fab, V domains shown)
VH: EVQLLESGPGLVKPSETLSLTCAVSGNSISSAYGWHWIRQVPGKGLEWIGSIGGSRGTTNYNPSLKSRGTISEDTSKNQFSLRLRSVSAADTAVYFCARDSGYSFRYFDFWGRGVLVTVSS
VL: AAELTQSPATLSLAPGETATLSCRASQSIGTNLAWYHQKPGQPPKLLVHSAYVRATGIPNRFSGSGSRTDFTLTINSLQPEDVGVYHCQQYNDLLPLTFGGGTKIDIK
Regarding B14, the binding result was “binds”.

B15: KP2-20 Fab/phage clone (anti-Band 3, Wrb) (Fab, V domains shown)
VH: EVQLLESGPGLVKPSETLSLTCAVSGGSISGGYDWSWIRQSPGKGLEWIGYIYDSRGTTNYNPSLRKRVTISIDTSRNQFSLKLRSLTAADTAVYYCARRAGYGSAYFDYWGQGVLVTVSS
VL: AAELTQSPATLSLSPGETATLSCRASQSVGSNLAWYQQKPGQAPKLLVHSGSVRATGIPDRFSGSGSRTDFTLIISSLEPEDVGVYHCQQYNDLLPLTFGGGTKVEIK
In the case of B15, the binding result is given as “binds”.
